Source: patent US20040018205A1
Read-outs that look alike come from different tables or passages of the source. Non-standard residues stand in square brackets, D forms with d. No end group written: not given here. Abu = CC[C@H](N)C(=O)O

B1: Y9M-5α-but (peptide)
peptide: YIAE[Abu]ILGM
B2: Y9M-5A (peptide)
peptide: YIAEAILGM
modifications: not checked
B3: Y9E (peptide)
peptide: YMPIGRIAE
modifications: not checked
B4: Y9I (peptide)
peptide: YIGRIAECI
modifications: not checked
B5: R9M-5S (peptide)
peptide: RIAESILGM
modifications: not checked
B6: Y9M-5S (peptide)
peptide: YIAESILGM
modifications: not checked
B7: P9I (peptide)
peptide: PIGRIAECI
modifications: not checked
B8: R9M-5A (peptide)
peptide: RIAEAILGM
modifications: not checked
B9: R9M-5α-but (peptide)
peptide: RIAE[Abu]ILGM
B10: wildtype R9M peptide (peptide)
peptide: RIAECILGM
modifications: not checked
B11: A9E (peptide)
peptide: AMPIGRIAE
modifications: not checked
B12: Y9M (peptide)
peptide: YIAECILGM
modifications: not checked

Experiments:
[1] = target: soluble HLA-A2.01 molecules; experiment: competition with 125I-F10V for HLA-A2.01, ratio peptide/125I-F10V 25/1
[2] = target: HLA-A2.01 molecule at the surface of T2 cells; experiment: T2 cell HLA-A2.01 stabilization; concentration ratio against the reference peptide for 20% of maximal stabilized molecules
[3] = target: soluble HLA-A2.01 molecules; experiment: competition with 125I-F10V for HLA-A2.01, ratio peptide/125I-F10V 10/1
[4] = target: HLA-A2.01 molecule at the surface of T2 cells; experiment: T2 cells loaded overnight; residual surface complexes by indirect immunofluorescence and FACS at 0, 2, 4 and 5 h
[5] = target: HLA-A2.01 molecule at the surface of T2 cells

| Binder | percentage inhibition of the binding of 125I-F10V, ratio 25/1 [1] [%] | RA [2] | percentage inhibition of the binding of 125I-F10V, ratio 10/1 [3] [%] | DC50 (half-life of the peptide-HLA-A2.1 complex) [4] [h] | DC50 (half-life of the peptide-HLA-A2.1 complex) [5] [h] | RA [5] |
| --- | --- | --- | --- | --- | --- | --- |
| B1 | 26 | 0.7 | 26 | – | – | – |
| B2 | 87 | 0.9 | 79 | – | – | – |
| B3 | – | – | – | 0 | – | – |
| B4 | – | – | – | < 2 | – | – |
| B5 | 75 | – | 74 | – | 2 | 2.2 |
| B6 | 37 | 1.4 | 25 | – | – | – |
| B7 | – | – | – | 0 | – | – |
| B8 | 72 | 3.2 | 59 | < 2 | – | – |
| B9 | 49 | 2 | 27 | 2 | – | – |
| B10 | 69 | 2.9 | 64 | < 2 | – | – |
| B11 | 57 | – | 47 | – | – | – |
| B12 | – | – | – | < 2 | – | – |
